According to article PMC7875428:

Tests used:
[1] = biological target: 6×His-tagged human DSG2 EC1-5 (amino acids A1-A553) from Expi293F GnTI- cells (human); assay: BLI; biotinylated DSG2 variants loaded on streptavidin biosensors (immobilized at 1 μg/mL); FimH^LD or FimH^Q133K in solution, 10 μM to 156 nM, 15 min association, 20 min dissociation; 10 mM HEPES pH 7.4, 150 mM NaCl, 1 mM CaCl2, 3 mM EDTA, 0.005% P20, 1% BSA, 25°C; Octet-Red96; global 1:1 fit with drifting baseline; apparent constants
[2] = biological target: 6×His-tagged human DSG2 EC1-5 (amino acids A1-A553) from wild-type Expi293F cells (human); assay: as above

In the case of “lectin domain of FimH (FimH^LD, amino acids F1-G160) (from UniProt P08191 22-181) (domain or fragment)”, the Kd [1] is reported as 0.484 µM and the Kd [2] is reported as 1.6 µM.
